Laboratory results: patent publication US20130040886A1 (BOARD OF TRUSTEES OF THE UNIVERSITY OF ILLINOIS, published 2013)

B1: G13SR2-Random Peptide, Gly-Phe-Asp-Glu-Trp-Glu-Val-Ser-Phe-Lys-Gly-Cys-Gln-Arg-Arg-Ser-Arg (peptide)
peptide: GFDEWEVSFKGCQRRSR
notes: Control peptide immobilised on a peptide column; also called Random Peptide control
B2: G13 Switch Region 2 peptide (G13SR2pep), Val-Gly-Gly-Gln-Arg-Ser-Glu-Arg-Lys-Arg-Trp-Phe-Glu-Cys-Phe-Asp-Ser (peptide)
peptide: VGGQRSERKRWFECFDS
notes: how it was coupled is not described; also called G13SR2pep peptide; Gα13 SR2 peptide

Tests used:
[1] = biological target: T1, kindlin 3 (72 kD) from solubilized human platelets (human, UniProt Q86UX7 1-667); assay: peptide affinity column with solubilized human platelets, western blot of eluates
T1 construct: mature; Native cytoplasmic protein from solubilized human platelets
T1 sequence (Q86UX7 whole entry): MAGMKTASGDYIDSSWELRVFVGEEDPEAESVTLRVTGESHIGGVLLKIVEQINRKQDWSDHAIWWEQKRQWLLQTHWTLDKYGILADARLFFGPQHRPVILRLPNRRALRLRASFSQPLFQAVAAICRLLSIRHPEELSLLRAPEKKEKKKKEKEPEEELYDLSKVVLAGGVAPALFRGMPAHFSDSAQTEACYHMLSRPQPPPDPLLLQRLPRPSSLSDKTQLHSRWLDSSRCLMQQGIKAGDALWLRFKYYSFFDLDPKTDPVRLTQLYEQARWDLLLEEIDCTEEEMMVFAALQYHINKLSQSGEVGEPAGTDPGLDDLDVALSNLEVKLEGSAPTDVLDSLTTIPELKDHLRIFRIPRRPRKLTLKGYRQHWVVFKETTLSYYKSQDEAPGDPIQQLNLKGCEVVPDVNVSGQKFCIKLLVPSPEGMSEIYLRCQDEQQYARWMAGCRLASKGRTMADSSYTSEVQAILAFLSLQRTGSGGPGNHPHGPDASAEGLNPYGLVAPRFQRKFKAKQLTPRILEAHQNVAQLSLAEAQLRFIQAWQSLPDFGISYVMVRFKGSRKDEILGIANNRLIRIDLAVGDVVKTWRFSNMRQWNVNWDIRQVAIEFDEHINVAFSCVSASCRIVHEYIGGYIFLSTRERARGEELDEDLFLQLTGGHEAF
From the text: (§1) On this basis, subsequent experiments examined whether G₁₃SR2ₚₑₚ peptide (SEQ ID NO:5) does indeed directly interact with α11bβ₃ and/or one of its associated proteins in human platelets. In this respect, platelet α11bβ₃ integrin is known to exist in a complex with two cytoplasmic proteins, i.e., talin and kindlin-3 (Tadokoro, et al. (2003) Science 302:103-6; Moser, et al. (2008) Nature Med. 14:325-30). To determine whether G₁₃SR2ₚₑₚ, (SEQ ID NO:5) interacts with any of these proteins (or with the entire α11bβ₃, talin, kindlin-3 complex), peptide affinity columns using G₁₃SR2ₚₑₚ (SEQ ID NO:5) were employed. The affinity purified protein(s) from solubilized human platelets that specifically bound to the G₁₃SR2ₚₑₚ peptide were eluted, and analyzed by western blot for α11bβ₃ integrin, talin and kindlin-3. In similar experiments, the eluates from a peptide column using the G₁₃SR2-Random Peptide (SEQ ID NO:9) were also analyzed. […] This was supported by similar experiments using talin antibodies and the kindlin 3 antibody (Abcam).

[2] = biological target: T2, α11bβ3 integrin (platelet integrin αIIbβ3) from solubilized human platelets (human, UniProt P08514 32-1039; P05106 27-788); assay: as above
T2 construct: mature; Native protein from solubilized human platelets, detected by immunoblot with Abcam antibodies
From the text: as §1

[3] = biological target: T1, kindlin 3 (72 kD) from solubilized …; assay: peptide affinity column with solubilized human platelets, immunoblot of eluate
From the text: as §1

[4] = biological target: T2, α11bβ3 integrin (platelet integrin …); assay: as above
From the text: as §1

[5] = biological target: T3, α11bβ3-talin-kindlin 3 complex from solubilized human platelets (human, UniProt P08514 32-1039; P05106 27-788; Q9Y490 1-2541; Q86UX7 1-667); assay: as above
T3 construct: mature
From the text: as §1

| Binder | binding result [1] | binding result [2] | binding result [3] | binding result [4] | binding result [5] |
| --- | --- | --- | --- | --- | --- |
| B1 | no binding | no binding | – | – | – |
| B2 | – | – | binds | binds | binds |
